{
  "source": "patent US20110152176A1",
  "about": "“AGR-MEDIATED INHIBITION AND DISPERSAL OF BIOFILMS” (priority 2008, published 2011)",
  "molecules": {"B1": {"name": "proteinase K: protease enzyme (Sigma-Aldrich) suspended in water and added to the media reservoir (protein, UniProt P06873 106-384, looked up)", "Proteinase K": "AAQTNAPWGLARISSTSPGTSTYYYDESAGQGSCVYVIDTGIEASHPEFEGRAQMVKTYYYSSRDGNGHGTHCAGTVGSRTYGVAKKTQLFGVKVLDDNGSGQYSTIIAGMDFVASDKNNRNCPKGVVASLSLGGGYSSSVNSAAARLQSSGVMVAVAAGNNNADARNYSPASEPSVCTVGASDRYDRRSSFSNYGSVLDIFGPGTSILSTWIGGSTRSISGTSMATPHVAGLAAYLMTLGKTTAASACRYIADTANKGDLSNIPFGTVNLLAYNNYQA"}},
  "key": {"S. aureus SH1000 biofilm": {"system": "S. aureus SH1000 biofilm", "assay": "Flow cell biofilm detachment (CLSM, COMSTAT biomass, effluent CFU)", "assay_type": "cell-based, Staphylococcus aureus", "details": "SH1000 2-day biofilm, proteinase K 2 mg/mL", "description": "(§1) Biofilm experiments. Microtiter plate biofilms were performed as described (Shanks et al., 2005) except that the plates were incubated at 37° C. with shaking at 200 rpm for 12 hours. For flow cell experiments, AIPs were generated using the DnaB intein method, and the AIP concentrations were determined as previously described (Malone et al., 2007). AIPs stocks (20 mM) were stored in 100 mM phosphate (pH 7), 50 mM NaC1, 1 mM tris(2-carboxyethyl) phosphine (TCEP) and were diluted into the biofilm flow medium to a final concentration of 50 nM. When required, […] of erythromycin and/or chloramphenicol were added to the flow cell media to maintain plasmids. The growth medium for flow cell biofilms consisted of 2% TSB plus 0.2% glucose unless otherwise indicated. Flow cell biofilm experiments and confocal microscopy were performed as previously described (Yarwood et al., 2004). […] Biofilm biomass was quantified with the COMSTAT program (Heydorn et al., 2000) and percent biomass detached was calculated by subtracting biomass present at day 4 from day 2. To quantitate the number of bacteria detaching from a biofilm, 1 ml of flow cell effluent was collected on ice at indicated time points. […]\nAIP detaches S. aureus biofilms. […] To confirm that AIP-I caused detachment, the inventors counted viable S. aureus cells in the effluent media (FIG. 2C). […]"}, "SH1000 biofilm": {"system": "SH1000 biofilm", "assay": "Microtiter plate biofilm formation", "assay_type": "cell-based, Staphylococcus aureus", "details": "proteinase K added to SH1000 (data not shown)", "description": "as §1, with “2004). Flow cells were inoculated with overnight cultures diluted 1:100 in sterile water and laminar flow ([…]) was initiated after one hour incubation.” for “2004).”"}},
  "data": [
    {"molecule": "B1", "values": [
      {"measurement": "biofilm detachment observed by CLSM", "setting": "S. aureus SH1000 biofilm", "value": "rapid detachment over 12 hrs"},
      {"measurement": "biofilm development in microtiter plate", "setting": "SH1000 biofilm", "value": "biofilms were unable to develop"}
    ]}
  ]
}
